B1: Tumor necrosis factor ligand superfamily member 15 (Homo sapiens), O95150-1 (parent)
chain: MAEDLGLSFGETASVEMLPEHGSCRPKARSSSARWALTCCLVLLPFLAGLTTYLLVSQLRAQGEACVQFQALKGQEFAPSHQQVYAPLRADGDKPRAHLTVVRQTPTQHFKNQFPALHWEHELGLAFTKNRMNYTNKFLLIPESGDYFIYSQVTFRGMTSECSEIRQAGRPNKPDSITVVITKVTDSYPEPTQLLMGTKSVCEVGSNWFQPIYLGAMFSLQEGDKLMVNVSDISLVDYTKEDKTFFGAFLL
partner: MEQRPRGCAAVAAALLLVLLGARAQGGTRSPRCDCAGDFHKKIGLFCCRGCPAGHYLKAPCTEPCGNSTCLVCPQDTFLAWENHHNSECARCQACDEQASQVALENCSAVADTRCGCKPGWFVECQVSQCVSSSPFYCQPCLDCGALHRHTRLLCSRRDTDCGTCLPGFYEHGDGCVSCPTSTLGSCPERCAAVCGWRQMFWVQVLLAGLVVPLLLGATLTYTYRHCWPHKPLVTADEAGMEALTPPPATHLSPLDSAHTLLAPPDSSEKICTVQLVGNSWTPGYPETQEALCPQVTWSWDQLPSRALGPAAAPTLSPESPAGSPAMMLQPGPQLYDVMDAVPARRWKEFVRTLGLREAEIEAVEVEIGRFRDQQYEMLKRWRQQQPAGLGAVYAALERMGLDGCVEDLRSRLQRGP
B2: Tumor necrosis factor receptor superfamily member 6B (Homo sapiens), O95407 (parent)
chain: MRALEGPGLSLLCLVLALPALLPVPAVRGVAETPTYPWRDAETGERLVCAQCPPGTFVQRPCRRDSPTTCGPCPPRHYTQFWNYLERCRYCNVLCGEREEEARACHATHNRACRCRTGFFAHAGFCLEHASCPPGAGVIAPGTPSQNTQCQPCPPGTFSASSSSSEQCQPHRNCTALGLALNVPGSSSHDTLCTSCTGFPLSTRVPGAEECERAVIDFVAFQDISIKRLQRLLQALEAPEGWGPTPRAGRAALQLKLRRRLTELLGAQDGALLVRLLQALRVARMPGLERSVRERFLPVH
partner: B1 chain
B3: Tumor necrosis factor receptor superfamily member 6B (Homo sapiens), O95407 (parent)
chain: B2 chain

Variants of: B1
Settings: with TNFRSF25, Q93038-1
MAEDLGLSFGETASVEMLPEHGSCRPKARSSSARWALTCCLVLLPFLAGLTTYLLVSQLRAQGEACVQFQALKGQEFAPSHQQVYAPLRADGDKPRAHLTVVRQTPTQHFKNQFPALHWEHELGLAFTKNRMNYTNKFLLIPESGDYFIYSQVTFRGMTSESSEIRQAGRPNKPDSITVVITKVTDAYPAPTQLLMGTKSVSEVGSNWFQPIYLGAMFSLQEGDKLMVNVSDISLVDYTKEDKTFFGAFLL [C162S;S187A;E190A;C202S] was tested, and the “effect of a mutation on the interaction” value was “disrupting interaction”.

Variants of: B2
Settings: with TNFSF15, O95150-1
In the case of MRALEGPGLSLLCLVLALPALLPVPAVRGVAETPTYPWRDAETGERLVCAQCPPGTFVQRPCRRDSPTTCGPCPPRHYTQFWNYAERCAYCNVLCGEREEEARACHATHNRACRCRTGFFAHAGFCLEHASCPPGAGVIAPGTPSQNTQCQPCPPGTFSASSSSSEQCQPHRNCTALGLALNVPGSSSHDTLCTSCTGFPLSTRVPGAEECERAVIDFVAFQDISIKRLQRLLQALEAPEGWGPTPRAGRAALQLKLRRRLTELLGAQDGALLVRLLQALRVARMPGLERSVRERFLPVH [L85A;R89A], the “effect of a mutation on the interaction” value is reported as “decreasing interaction”.

Variants of: B3
Settings: with TNFSF14, O43557-1
Chain of TNFSF14, O43557-1 (O43557 whole entry): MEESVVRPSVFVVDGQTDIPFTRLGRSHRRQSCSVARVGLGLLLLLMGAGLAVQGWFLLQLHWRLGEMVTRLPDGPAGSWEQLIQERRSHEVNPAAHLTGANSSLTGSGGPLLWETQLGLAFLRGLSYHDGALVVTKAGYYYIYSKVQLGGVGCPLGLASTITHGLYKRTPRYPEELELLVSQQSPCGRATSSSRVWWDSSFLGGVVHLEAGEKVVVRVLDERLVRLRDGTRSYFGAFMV
In the case of MRALEGPGLSLLCLVLALPALLPVPAVRGVAETPTYPWRDAETGERLVCAQCPPGTFVQRPCRRDSPTTCGPCPPRHYTQFWNYAERCAYCNVLCGEREEEARACHATHNRACRCRTGFFAHAGFCLEHASCPPGAGVIAPGTPSQNTQCQPCPPGTFSASSSSSEQCQPHRNCTALGLALNVPGSSSHDTLCTSCTGFPLSTRVPGAEECERAVIDFVAFQDISIKRLQRLLQALEAPEGWGPTPRAGRAALQLKLRRRLTELLGAQDGALLVRLLQALRVARMPGLERSVRERFLPVH [L85A;R89A], the “effect of a mutation on the interaction” value is reported as “decreasing interaction”.

Variants of: B3
Settings: with tnfl6_human FASLG
In the case of MRALEGPGLSLLCLVLALPALLPVPAVRGVAETPTYPWRDAETGERLVCAQCPPGTFVQRPCRRDSPTTCGPCPPRHYTQFWNYAERCAYCNVLCGEREEEARACHATHNRACRCRTGFFAHAGFCLEHASCPPGAGVIAPGTPSQNTQCQPCPPGTFSASSSSSEQCQPHRNCTALGLALNVPGSSSHDTLCTSCTGFPLSTRVPGAEECERAVIDFVAFQDISIKRLQRLLQALEAPEGWGPTPRAGRAALQLKLRRRLTELLGAQDGALLVRLLQALRVARMPGLERSVRERFLPVH [L85A;R89A], the “effect of a mutation on the interaction” value is reported as “disrupting interaction”.

Source: IntAct's records for PubMed 21300286
